Tests used:
BxPC-3 cells = assay: In vitro cytotoxicity assay (CellTiter-Glo), BxPC-3; assay type: cell-based
Description: (§1) In vitro cytotoxicity assay: The cytotoxic effect of an EC4-based ADC was measured by a cell proliferation assay employing the protocol in the Promega Corp. Technical Bulletin TB288; and Mendoza et a1., 2002, Cancer Res. 62:5485-5488), the methods of which are specifically incorporated by reference herein. Briefly, an aliquot of 40 μl of cell culture containing about 400 cells in medium was deposited in each well of a 384-well, opaque-walled plate. A 10 μL aliquot of free cytotoxic agent or ADC was added to the experimental wells and incubated for 96 hr and then incubated at room temperature for approximately 30 mins whereupon a volume of CellTiter-Glo™ reagent equal to the volume of cell culture medium present in each well was added. The contents were mixed for 2 mins on an orbital shaker to induce cell lysis and the plate was incubated at room temperature for 10 mins to stabilize the luminescence signal for recordation.
Anti-ITGB6 ADCs were tested for potency. The antibodies were engineered with the cysteine pairs disclosed above in the previous Examples. The efficacy of anti-ITGB6 EC4 ADCs were also tested against conventional anti-ITGB6 ADCs. The cells were treated with conventional or EC4 ADCs, then the remaining cells were counted to assess the cytotoxic effects of each EC4 variant compared to conventional ADCs. […] Cytotoxicity in BxPC-3 cells increased when the cells were treated with greater than 50 ng/mL of the positive control, conventional anti-ITGB6 ADCs (h2A2-mc-vc-MMAE). […] Both h2A2-mc-vc-MMAE and h2A2 S400C S114C-mc-vc-MMAE were cytotoxic to HPAFII cells when greater than 10 ng/mL ADC were used on the cells.

HPAFII cells = assay: In vitro cytotoxicity assay (CellTiter-Glo), HPAFII; assay type: cell-based
Description: as §1
Anti-ITGB6 ADCs were tested for potency. The antibodies were engineered with the cysteine pairs disclosed above in the previous Examples. The efficacy of anti-ITGB6 EC4 ADCs were also tested against conventional anti-ITGB6 ADCs. The cells were treated with conventional or EC4 ADCs, then the remaining cells were counted to assess the cytotoxic effects of each EC4 variant compared to conventional ADCs. […]

B1: h2A2-mc-vc-MMAE(4): conventional anti-ITGB6 ADC, h2A2 without engineered cysteines conjugated with mc-vc-MMAE; positive control (conjugate)
VH: QFQLVQSGAEVKKPGASVKVSCKASGYSFTDYNVNWVRQAPGQGLEWIGVINPKYGTTRYNQKFKGRATLTVDKSTSTAYMELSSLRSEDTAVYYCTRGLNAWDYWGQGTLVTVSS
VL: DIQMTQSPSSLSASVGDRVTITCGASENIYGALNWYQQKPGKAPKLLIYGATNLEDGVPSRFSGSGSGRDYTFTISSLQPEDIATYYCQNVLTTPYTFGQGTKLEIK
BxPC-3 cells; BXPC3
  % viability at top concentration: 36%
BxPC-3 cells; BXPC3, 96 hr
  x50: 251 ng/mL
BxPC-3 cells; BxPC-3 cells
  ADC concentration above which cytotoxicity increased: greater than 50 ng/mL
HPAFII cells
  % viability at top concentration: 35%
HPAFII cells; 96 hr
  x50: 199 ng/mL

From patent US20260209383A1, “SITE-[…] […] ANTIBODY DRUG CONJUGATES” (SEAGEN INC., priority 2022, published 2026)
